Reference: the Human Domainome abundance scans (Beltran et al. 2025)
± gives the uncertainty stated by the source.

Test: abundance fitness (aPCA) (normalised: wild type 0, dead -1); higher = more abundant; growth selection in yeast, the domain comes from the species named
Details: Homo sapiens

Substance	abundance fitness
BAG family molecular chaperone regulator 3 H42L, O95817	-0.641 ± 0.18
BAG family molecular chaperone regulator 3 H42M, O95817	-0.37 ± 0.11
BAG family molecular chaperone regulator 3 H42P, O95817	-0.788 ± 0.13
BAG family molecular chaperone regulator 3 H42R, O95817	-0.448 ± 0.18
BAG family molecular chaperone regulator 3 H42S, O95817	-0.678 ± 0.25
BAG family molecular chaperone regulator 3 H42T, O95817	-0.55 ± 0.21
BAG family molecular chaperone regulator 3 H42W, O95817	-0.886 ± 0.14
BAG family molecular chaperone regulator 3 H42Y, O95817	-0.55 ± 0.088
BAG family molecular chaperone regulator 3 I28A, O95817	-0.423 ± 0.2
BAG family molecular chaperone regulator 3 I28C, O95817	-0.375 ± 0.22
BAG family molecular chaperone regulator 3 I28D, O95817	-0.503 ± 0.18
BAG family molecular chaperone regulator 3 I28E, O95817	0.316 ± 0.11
BAG family molecular chaperone regulator 3 I28G, O95817	-0.088 ± 0.08
BAG family molecular chaperone regulator 3 I28L, O95817	-0.444 ± 0.17
BAG family molecular chaperone regulator 3 I28M, O95817	0.248 ± 0.14
BAG family molecular chaperone regulator 3 I28N, O95817	0.206 ± 0.3
BAG family molecular chaperone regulator 3 I28P, O95817	-0.713 ± 0.28
BAG family molecular chaperone regulator 3 I28Q, O95817	-0.307 ± 0.22
BAG family molecular chaperone regulator 3 I28R, O95817	0.171 ± 0.066
BAG family molecular chaperone regulator 3 I28S, O95817	0.183 ± 0.083
BAG family molecular chaperone regulator 3 I28T, O95817	-0.636 ± 0.29
BAG family molecular chaperone regulator 3 I28V, O95817	0.068 ± 0.1
BAG family molecular chaperone regulator 3 I28Y, O95817	-0.19 ± 0.3

Substance	abundance fitness
BAG family molecular chaperone regulator 3 I30A, O95817	-0.011 ± 0.11
BAG family molecular chaperone regulator 3 I30C, O95817	0.028 ± 0.16
BAG family molecular chaperone regulator 3 I30D, O95817	-0.389 ± 0.14
BAG family molecular chaperone regulator 3 I30E, O95817	-0.226 ± 0.079
BAG family molecular chaperone regulator 3 I30G, O95817	-0.44 ± 0.087
BAG family molecular chaperone regulator 3 I30H, O95817	-0.114 ± 0.074
BAG family molecular chaperone regulator 3 I30K, O95817	-0.087 ± 0.2
BAG family molecular chaperone regulator 3 I30L, O95817	0.249 ± 0.091
BAG family molecular chaperone regulator 3 I30N, O95817	-0.166 ± 0.28
BAG family molecular chaperone regulator 3 I30P, O95817	-0.661 ± 0.084
BAG family molecular chaperone regulator 3 I30R, O95817	-0.133 ± 0.084
BAG family molecular chaperone regulator 3 I30S, O95817	-0.191 ± 0.077
BAG family molecular chaperone regulator 3 I30T, O95817	-0.32 ± 0.2
BAG family molecular chaperone regulator 3 I30V, O95817	0.207 ± 0.092
BAG family molecular chaperone regulator 3 I30W, O95817	0.13 ± 0.12
BAG family molecular chaperone regulator 3 K29A, O95817	-0.37 ± 0.12
BAG family molecular chaperone regulator 3 K29C, O95817	-0.369 ± 0.24
BAG family molecular chaperone regulator 3 K29E, O95817	-0.791 ± 0.42
BAG family molecular chaperone regulator 3 K29F, O95817	-0.719 ± 0.45
BAG family molecular chaperone regulator 3 K29G, O95817	-0.531 ± 0.083
BAG family molecular chaperone regulator 3 K29H, O95817	-0.686 ± 0.16
BAG family molecular chaperone regulator 3 K29I, O95817	-0.758 ± 0.38
BAG family molecular chaperone regulator 3 K29L, O95817	-0.376 ± 0.091

Substance	abundance fitness
BAG family molecular chaperone regulator 3 K29M, O95817	-0.23 ± 0.21
BAG family molecular chaperone regulator 3 K29N, O95817	-0.75 ± 0.43
BAG family molecular chaperone regulator 3 K29P, O95817	-0.598 ± 0.26
BAG family molecular chaperone regulator 3 K29Q, O95817	-0.711 ± 0.28
BAG family molecular chaperone regulator 3 K29R, O95817	-0.17 ± 0.066
BAG family molecular chaperone regulator 3 K29S, O95817	-0.313 ± 0.11
BAG family molecular chaperone regulator 3 K29T, O95817	-0.212 ± 0.16
BAG family molecular chaperone regulator 3 K29V, O95817	-0.266 ± 0.11
BAG family molecular chaperone regulator 3 K29W, O95817	-0.754 ± 0.29
BAG family molecular chaperone regulator 3 L22A, O95817	-0.362 ± 0.17
BAG family molecular chaperone regulator 3 L22C, O95817	0.225 ± 0.16
BAG family molecular chaperone regulator 3 L22D, O95817	-0.753 ± 0.42
BAG family molecular chaperone regulator 3 L22F, O95817	-0.069 ± 0.18
BAG family molecular chaperone regulator 3 L22G, O95817	-0.144 ± 0.13
BAG family molecular chaperone regulator 3 L22H, O95817	-0.796 ± 0.37
BAG family molecular chaperone regulator 3 L22I, O95817	-0.271 ± 0.15
BAG family molecular chaperone regulator 3 L22M, O95817	0.023 ± 0.17
BAG family molecular chaperone regulator 3 L22N, O95817	-0.67 ± 0.34
BAG family molecular chaperone regulator 3 L22P, O95817	-0.477 ± 0.23
BAG family molecular chaperone regulator 3 L22Q, O95817	-0.226 ± 0.095
BAG family molecular chaperone regulator 3 L22S, O95817	-0.574 ± 0.11
BAG family molecular chaperone regulator 3 L22T, O95817	0.047 ± 0.17
BAG family molecular chaperone regulator 3 L22V, O95817	0.078 ± 0.068

Substance	abundance fitness
BAG family molecular chaperone regulator 3 L22W, O95817	-0.464 ± 0.083
BAG family molecular chaperone regulator 3 N16A, O95817	0.423 ± 0.079
BAG family molecular chaperone regulator 3 N16C, O95817	0.113 ± 0.14
BAG family molecular chaperone regulator 3 N16D, O95817	0.008 ± 0.07
BAG family molecular chaperone regulator 3 N16E, O95817	0.658 ± 0.11
BAG family molecular chaperone regulator 3 N16F, O95817	-0.219 ± 0.24
BAG family molecular chaperone regulator 3 N16H, O95817	0.094 ± 0.13
BAG family molecular chaperone regulator 3 N16I, O95817	0.113 ± 0.19
BAG family molecular chaperone regulator 3 N16K, O95817	1.04 ± 0.12
BAG family molecular chaperone regulator 3 N16L, O95817	0.33 ± 0.1
BAG family molecular chaperone regulator 3 N16M, O95817	0.276 ± 0.065
BAG family molecular chaperone regulator 3 N16P, O95817	0.153 ± 0.14
BAG family molecular chaperone regulator 3 N16Q, O95817	0.465 ± 0.17
BAG family molecular chaperone regulator 3 N16R, O95817	0.231 ± 0.065
BAG family molecular chaperone regulator 3 N16T, O95817	0.666 ± 0.11
BAG family molecular chaperone regulator 3 N16V, O95817	0.368 ± 0.1
BAG family molecular chaperone regulator 3 N16Y, O95817	0.117 ± 0.1
BAG family molecular chaperone regulator 3 N43A, O95817	-0.331 ± 0.087
BAG family molecular chaperone regulator 3 N43C, O95817	-0.681 ± 0.38
BAG family molecular chaperone regulator 3 N43D, O95817	-0.622 ± 0.31
BAG family molecular chaperone regulator 3 N43G, O95817	-0.531 ± 0.14
BAG family molecular chaperone regulator 3 N43H, O95817	-0.384 ± 0.38
